Assay [1] addresses collagen. Description: fluorescence plate binding assay, collagen coated on 96-well high-binding plate, equilibrium fit.
Assay [2] concerns the target collagen. Put plainly: SPR (Biacore 2000), collagen immobilised on CM-3 chip, peptide in solution 100 µM to 1.5 µM, from on-off kinetics. A general note: SPR reads the build-up and loss of mass on a sensor chip optically.

The values below come from patent publication US20120100106A1.

Ends that are not written are not given here. * marks the point of attachment. Dansyl = CN(C)c1cccc2c(S(=O)(=O)*)cccc12

B1: Dansyl-… (peptide)
peptide: Dansyl-GRRANAALKAGELYKSILYGC
In general, Kd refers to a measure of binding affinity in units of concentration. High values mean weaker binding, low ones tighter binding. Regarding B1, the dissociation constant (Kd) with collagen [1] stood at 860 nM.

B2: … (SILY) peptide (peptide)
peptide: RRANAALKAGELYKSILYGC
The molecule B2 registered an equilibrium dissociation constant (Kd) with collagen [2] of 1200 nM.
